Measured values published in publication PMC4376941, “The Gene YALI0E20207g from Yarrowia lipolytica Encodes an N-Acetylglucosamine Kinase Implicated in the Regulated Expression of the Genes from the N-Acetylglucosamine Assimilatory Pathway” (PLoS ONE, 2015).

Substrate: Nc1ncnc2c1ncn2[C@@H]1O[C@H](COP(=O)(O)OP(=O)(O)OP(=O)(O)O)[C@@H](O)[C@H]1O
Assay: purified protein
Assay type: biochemical, Yarrowia lipolytica
Details: 4 mM NAGA, 0.1 M Tris-HCl pH 7.5, 30 °C, mean of two preparations

B1: YlNag5 (YALI0E20207p), N-acetylglucosamine (NAGA) kinase (Yarrowia lipolytica CLIB122) (protein)
chain: MSMGDDDRAYHHQMSVIVTAANANLPGHGKGPLVSVSSELLTKESHLMYDFERYVARNPSRFNQKVLDNLRIHHTYTRSSLDTLVNEFLAEITPACANRDAPSMLPSKMGSLPNDSLTGSVLSIDIGGSTLRGSMVDLEKMTVTDSVQHLIPDTVKNYSGSDFFDWIVERIMPLVKDCTATIIPIGLSWSFPIFQPHISSGLIQTMGKGYGVADEIINQDLKELFETHFASHGKTVEVGAILNDSVASLVAANYISNAPLCLILGTGINVSALIPKDQLKKTEQDQDKYIVNCEASLFGQCVSKTCWDLELDQALERPGFQPLESLSSGRYLGEICRLILRDLSKTGFLSRPDVGPYELTTAEVADLETADSGELDYVQDIILATSDRSAALASAFITAIYKLTGSDCESPSIAYDGTMVQKYPNFRPRMQQRLREQGLNVTFVAVEEGTVYGSAIACASQLSQ
notes: N-terminal GST fusion (pGEX-4T-2, plasmid pCL151), full-length ORF, expressed in E. coli BL21(DE3), glutathione-Sepharose eluted, tag not reported cut
Protein B1 has a Km of 1000 µM.
